# In patent US20240400614A1, “CLEAVABLE PEPTIDES AND METHODS OF USE THEREOF” (Bright Peak Therapeutics AG, priority 2023, published 2024):
# Square brackets hold non-standard residues; d marks the D form. Ends that are not written are not given here. Tyr(3-NO2) = N[C@@H](Cc1ccc(O)c([N+](=O)[O-])c1)C(=O)O; Nle = CCCC[C@H](N)C(=O)O; 2Abz = Nc1ccccc1C(=O)O
# Key:
# Format in all cases: biochemical
# matriptase = molecular target: T1, matriptase (Homo sapiens, UniProt Q9Y5Y6); experiment: FRET peptide cleavage efficiency with matriptase
# T1 construct: purchased R&D Systems 3946-SEB
# T1 sequence (Q9Y5Y6 615-855 limits assumed): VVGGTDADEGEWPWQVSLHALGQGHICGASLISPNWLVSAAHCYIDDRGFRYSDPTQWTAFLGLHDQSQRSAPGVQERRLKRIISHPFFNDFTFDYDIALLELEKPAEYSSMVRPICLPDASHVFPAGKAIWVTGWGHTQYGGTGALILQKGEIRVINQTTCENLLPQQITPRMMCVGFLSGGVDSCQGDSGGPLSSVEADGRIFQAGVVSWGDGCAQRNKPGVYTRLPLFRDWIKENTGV
# MMP-7 = molecular target: T2, MMP-7 (Homo sapiens, UniProt P09237); experiment: FRET peptide cleavage efficiency with MMP-7 (standard pH 7.5; also pH 6.5)
# T2 construct: purchased SIGMA CC1059
# T2 sequence (P09237 95-267): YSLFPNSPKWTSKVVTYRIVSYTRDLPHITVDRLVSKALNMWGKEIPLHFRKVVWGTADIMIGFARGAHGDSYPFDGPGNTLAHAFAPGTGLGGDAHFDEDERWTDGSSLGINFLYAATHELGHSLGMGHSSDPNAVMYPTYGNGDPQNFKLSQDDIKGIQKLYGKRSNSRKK
# uPA = uPA (Homo sapiens, UniProt P00749); experiment: FRET peptide cleavage efficiency with uPA
# MMP-9 = molecular target: T3, MMP-9 (Homo sapiens, UniProt P14780); experiment: FRET peptide cleavage efficiency with MMP-9 (standard pH 7.5; also pH 6.5)
# T3 construct: purchased SIGMA PF024
# T3 sequence (P14780 94-707): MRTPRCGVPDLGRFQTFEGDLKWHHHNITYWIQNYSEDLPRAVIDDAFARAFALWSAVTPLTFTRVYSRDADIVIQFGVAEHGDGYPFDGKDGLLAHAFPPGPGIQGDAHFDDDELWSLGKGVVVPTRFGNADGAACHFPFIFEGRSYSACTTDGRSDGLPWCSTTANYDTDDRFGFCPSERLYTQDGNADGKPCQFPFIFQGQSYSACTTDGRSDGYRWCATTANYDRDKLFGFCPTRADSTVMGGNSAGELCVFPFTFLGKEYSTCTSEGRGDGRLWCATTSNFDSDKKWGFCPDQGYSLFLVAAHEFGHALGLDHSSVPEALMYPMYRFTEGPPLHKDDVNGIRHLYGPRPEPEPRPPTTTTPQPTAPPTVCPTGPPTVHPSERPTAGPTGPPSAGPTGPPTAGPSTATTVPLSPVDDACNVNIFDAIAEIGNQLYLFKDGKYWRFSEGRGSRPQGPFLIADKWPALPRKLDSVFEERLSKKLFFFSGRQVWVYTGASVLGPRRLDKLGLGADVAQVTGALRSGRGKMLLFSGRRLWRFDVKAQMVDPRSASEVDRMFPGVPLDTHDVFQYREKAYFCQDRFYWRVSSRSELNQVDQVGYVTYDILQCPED
# MMP-2 = molecular target: T4, MMP-2 (Homo sapiens, UniProt P08253); experiment: FRET peptide cleavage efficiency with MMP-2
# T4 construct: purchased SIGMA PF023
# T4 sequence (P08253 110-660): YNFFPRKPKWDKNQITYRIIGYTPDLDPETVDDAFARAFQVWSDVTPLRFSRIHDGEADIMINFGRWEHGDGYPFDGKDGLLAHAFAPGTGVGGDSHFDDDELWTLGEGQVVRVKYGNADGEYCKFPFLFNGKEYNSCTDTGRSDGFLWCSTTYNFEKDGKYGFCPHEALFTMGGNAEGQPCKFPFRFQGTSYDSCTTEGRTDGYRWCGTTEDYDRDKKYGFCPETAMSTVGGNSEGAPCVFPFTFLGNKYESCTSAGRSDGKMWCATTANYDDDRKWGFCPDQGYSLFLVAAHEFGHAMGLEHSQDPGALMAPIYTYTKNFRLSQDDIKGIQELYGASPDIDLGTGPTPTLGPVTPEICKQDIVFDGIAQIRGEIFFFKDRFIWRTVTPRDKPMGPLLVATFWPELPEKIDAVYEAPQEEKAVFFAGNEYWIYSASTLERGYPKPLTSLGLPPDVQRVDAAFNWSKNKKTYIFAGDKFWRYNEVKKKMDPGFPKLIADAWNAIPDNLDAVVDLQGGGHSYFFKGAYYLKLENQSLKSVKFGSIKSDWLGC
# [1] = t = 15 min, standard conditions (Table 8)
# [2] = t = 60 min, standard conditions (Table 8)
# [3] = t = 120 min, standard conditions (Table 8)
substance,measurement,setting,value
RGRKPQPLVD ([2Abz]RGRKPQPLVD[Tyr(3-NO2)]-NH2) [LNK039],% cleavage Matriptase t = 15 min,matriptase; [1],77%
same,% cleavage Matriptase t = 60 min,matriptase; [2],100%
same,% cleavage Matriptase t = 120 min,matriptase; standard conditions (Table 8),100%
same,% cleavage MMP-7 t = 15 min,MMP-7; t = 15 min (Table 9),35%
same,% cleavage MMP-7 t = 15 min,MMP-7; [1],35%
same,% cleavage MMP-7 t = 60 min,MMP-7; t = 60 min (Table 9),80%
same,% cleavage MMP-7 t = 60 min,MMP-7; [2],80%
same,% cleavage MMP-7 t = 120 min,MMP-7; t = 120 min (Table 9),96%
same,% cleavage MMP-7 t = 120 min,MMP-7; [3],96%
same,% vcleavage uPA t = 15 min,uPA; [1],0%
same,% cleavage uPA t = 60 min,uPA; [2],0%
same,% cleavage uPA t = 120 min,uPA; [3],0%
same,% cleavage MMP-9 t = 15 min,MMP-9; t = 15 min (Table 9),25%
same,% cleavage MMP-9 t = 15 min,MMP-9; [1],25%
same,% cleavage MMP-9 t = 60 min,MMP-9; t = 60 min (Table 9),74%
same,% cleavage MMP-9 t = 60 min,MMP-9; [2],74%
same,% cleavage MMP-9 t = 120 min,MMP-9; t = 120 min (Table 9),94%
same,% cleavage MMP-9 t = 120 min,MMP-9; [3],94%
same,% cleavage MMP-2 t = 15 min,MMP-2; t = 15 min (Table 9),10%
same,% cleavage MMP-2 t = 60 min,MMP-2; t = 60 min (Table 9),38%
same,% cleavage MMP-2 t = 60 min,MMP-2; [2],38%
same,% cleavage MMP-2 t = 120 min,MMP-2; t = 120 min (Table 9),61%
same,% cleavage MMP-2 t = 120 min,MMP-2; [3],61%
"SGRVAPQPLVD (not fully specified (N-terminus, C-terminus)) [LNK046]",% cleavage Matriptase t = 15 min,matriptase; [1],19%
same,% cleavage Matriptase t = 60 min,matriptase; [2],65%
same,% cleavage Matriptase t = 120 min,matriptase; standard conditions (Table 8),91%
same,% cleavage MMP-7 t = 15 min,MMP-7; t = 15 min (Table 9),77%
same,% cleavage MMP-7 t = 15 min,MMP-7; [1],77%
same,% cleavage MMP-7 t = 60 min,MMP-7; t = 60 min (Table 9),100%
same,% cleavage MMP-7 t = 60 min,MMP-7; [2],100%
same,% cleavage MMP-7 t = 120 min,MMP-7; t = 120 min (Table 9),100%
same,% cleavage MMP-7 t = 120 min,MMP-7; [3],100%
same,% vcleavage uPA t = 15 min,uPA; [1],1%
same,% cleavage uPA t = 60 min,uPA; [2],4%
same,% cleavage uPA t = 120 min,uPA; [3],7%
same,% cleavage MMP-9 t = 15 min,MMP-9; t = 15 min (Table 9),23%
same,% cleavage MMP-9 t = 15 min,MMP-9; [1],23%
same,% cleavage MMP-9 t = 60 min,MMP-9; t = 60 min (Table 9),74%
same,% cleavage MMP-9 t = 60 min,MMP-9; [2],74%
same,% cleavage MMP-9 t = 120 min,MMP-9; t = 120 min (Table 9),92%
same,% cleavage MMP-9 t = 120 min,MMP-9; [3],92%
same,% cleavage MMP-2 t = 15 min,MMP-2; t = 15 min (Table 9),19%
same,% cleavage MMP-2 t = 60 min,MMP-2; t = 60 min (Table 9),64%
same,% cleavage MMP-2 t = 60 min,MMP-2; [2],64%
same,% cleavage MMP-2 t = 120 min,MMP-2; t = 120 min (Table 9),88%
same,% cleavage MMP-2 t = 120 min,MMP-2; [3],88%
RGRKPY-Nle-LQG ([2Abz]RGRKPY[Nle]LQG[Tyr(3-NO2)]-NH2) [LNK036],% cleavage Matriptase t = 15 min,matriptase; [1],76%
same,% cleavage Matriptase t = 60 min,matriptase; [2],100%
same,% cleavage Matriptase t = 120 min,matriptase; standard conditions (Table 8),100%
same,% cleavage MMP-7 t = 15 min,MMP-7; t = 15 min (Table 9),34%
same,% cleavage MMP-7 t = 15 min,MMP-7; [1],34%
same,% cleavage MMP-7 t = 60 min,MMP-7; t = 60 min (Table 9),88%
same,% cleavage MMP-7 t = 60 min,MMP-7; [2],88%
same,% cleavage MMP-7 t = 120 min,MMP-7; t = 120 min (Table 9),100%
same,% cleavage MMP-7 t = 120 min,MMP-7; [3],100%
same,% vcleavage uPA t = 15 min,uPA; [1],0%
same,% cleavage uPA t = 60 min,uPA; [2],0%
same,% cleavage uPA t = 120 min,uPA; [3],0%
same,% cleavage MMP-9 t = 15 min,MMP-9; t = 15 min (Table 9),28%
same,% cleavage MMP-9 t = 15 min,MMP-9; [1],28%
same,% cleavage MMP-9 t = 60 min,MMP-9; t = 60 min (Table 9),87%
same,% cleavage MMP-9 t = 60 min,MMP-9; [2],87%
same,% cleavage MMP-9 t = 120 min,MMP-9; t = 120 min (Table 9),100%
same,% cleavage MMP-9 t = 120 min,MMP-9; [3],100%
same,% cleavage MMP-2 t = 15 min,MMP-2; t = 15 min (Table 9),27%
same,% cleavage MMP-2 t = 60 min,MMP-2; t = 60 min (Table 9),70%
same,% cleavage MMP-2 t = 60 min,MMP-2; [2],70%
same,% cleavage MMP-2 t = 120 min,MMP-2; t = 120 min (Table 9),88%
same,% cleavage MMP-2 t = 120 min,MMP-2; [3],88%
SSRGRRGPYMLQG ([2Abz]SSRGRRGPYMLQG[Tyr(3-NO2)]-NH2) [LNK021],% cleavage Matriptase t = 15 min,"matriptase; pH 6.5, t = 15 min (Table 7)",100%
same,% cleavage Matriptase t = 60 min,"matriptase; pH 6.5, t = 60 min (Table 7)",100%
same,% cleavage Matriptase t = 15 min,"matriptase; pH 7.5, t = 15 min (Table 7)",100%
same,% cleavage Matriptase t = 60 min,"matriptase; pH 7.5, t = 60 min (Table 7)",100%
same,% cleavage Matriptase t = 15 min,"matriptase; t = 15 min, 200 uM linker, 1 ug/ml protease, 37° C., buffer B pH 9.0",100%
same,% cleavage Matriptase t = 60 min,"matriptase; t = 60 min, 200 uM linker, 1 ug/ml protease, 37° C., buffer B pH 9.0",100%
same,% cleavage Matriptase t = 120 min,"matriptase; 200 uM linker, 1 ug/ml protease, 37° C., buffer B pH 9.0",100%
same,% cleavage MMP-7 t = 15 min,MMP-7; t = 15 min (Table 9),22%
same,% cleavage MMP-7 t = 60 min,MMP-7; t = 60 min (Table 9),69%
same,% cleavage MMP-7 t = 120 min,MMP-7; t = 120 min (Table 9),83%
same,% cleavage uPA t = 60 min,"uPA; pH 6.5, t = 60 min (Table 7)",0%
same,% cleavage uPA t = 120 min,"uPA; pH 6.5, t = 120 min (Table 7)",0%
same,% cleavage uPA t = 60 min,"uPA; pH 7.5, t = 60 min (Table 7)",10%
same,% cleavage uPA t = 120 min,"uPA; pH 7.5, t = 120 min (Table 7)",19%
same,% cleavage uPA t = 15 min,"uPA; t = 15 min, 200 uM linker, 1 ug/ml protease, 37° C., buffer A pH 8.5",5%
same,% cleavage uPA t = 60 min,"uPA; t = 60 min, 200 uM linker, 1 ug/ml protease, 37° C., buffer A pH 8.5",16%
same,% cleavage uPA t = 120 min,"uPA; t = 120 min, 200 uM linker, 1 ug/ml protease, 37° C., buffer A pH 8.5",27%
same,% cleavage MMP-9 t = 15 min,MMP-9; t = 15 min (Table 9),60%
same,% cleavage MMP-9 t = 60 min,MMP-9; t = 60 min (Table 9),98%
same,% cleavage MMP-9 t = 120 min,MMP-9; t = 120 min (Table 9),100%
same,% cleavage MMP-2 t = 15 min,"MMP-2; pH 6.5, t = 15 min (Table 7)",26%
same,% cleavage MMP-2 t = 60 min,"MMP-2; pH 6.5, t = 60 min (Table 7)",64%
same,% cleavage MMP-2 t = 15 min,"MMP-2; pH 7.5, t = 15 min (Table 7)",24%
same,% cleavage MMP-2 t = 60 min,"MMP-2; pH 7.5, t = 60 min (Table 7)",64%
same,% cleavage MMP-2 t = 15 min,MMP-2; t = 15 min (Table 9),20%
same,% cleavage MMP-2 t = 15 min,"MMP-2; t = 15 min, 200 uM linker, 1 ug/ml protease, 37° C., buffer C pH 7.5",23%
same,% cleavage MMP-2 t = 60 min,MMP-2; t = 60 min (Table 9),64%
same,% cleavage MMP-2 t = 60 min,"MMP-2; t = 60 min, 200 uM linker, 1 ug/ml protease, 37° C., buffer C pH 7.5",66%
same,% cleavage MMP-2 t = 120 min,MMP-2; t = 120 min (Table 9),100%
same,% cleavage MMP-2 t = 120 min,"MMP-2; t = 120 min, 200 uM linker, 1 ug/ml protease, 37° C., buffer C pH 7.5",88%
